Assay: soluble on expression in E. coli; label from the status in PepcDB or PDB records
In the case of “MSLSTIEDVAKLAGLSRTTVSRVINNHPYVSDEKKKRVQLAMKHLGFVPNSAARRLRKQKTETIAVLVPRITNPFFSRFIEAIEIAASEHKYKLIICQTRYLPEKEMEYLQLLSTKQVDGIILCSLENQWEDVEPYLQHGPIVLCNEYIEEANVPTVKFDHAQGAYIAAKHVLEQGYRNLIFCRGNETKVVSQQRKMGFLRAITEKSRQVEAIDFLENAFSWEDGKRIFHEVLKDKKNPTAILAGGDEVAAGIISEAKRHDWSIPDDLAVIGFDNQILSQITEPGITTIEQPIDEMARKVVDLMMDKIHTKNYRKKELYEFELELLVKGSTMKDTMLLAEGHHHHHH”, the “soluble on expression in E. coli” value is reported as “not soluble”. With “MSYCCCQSNIPPDGCIRDGMPVFCGLFPSGYRAPPRSLSPPAFRSVLVSGHQPQYADCQTRTGRPVRSPVTPPPAHTSAVHGALSLPGQPADMAMMCFHSQPRDEYGETDDTGMYPAHWKDWPSGCTRSQSVYR” the “soluble on expression in E. coli” value was “soluble”. With “MFSFNMFDHPIPRVFQNRFSTQYRCFSVSMLAGPNDRSDVEKGGKIIMPPSALDQLSRLNITYPMLFKLTNKNSDRMTHCGVLEFVADEGICYLPHWMMQNLLLEEGGLVQVESVNLQVATYSKFQPQSPDFLDITNPKAVLENALRNFACLTTGDVIAINYNEKIYELRVMETKPDKAVSIIECDMNVDFDAPLGYKEPERQVQHEESTEGEADHSGYAGELGFRAFSGSGNRLDGKKKGVEPSPSPIKPGDIKRGIPNYEFKLGKITFIRNSRPLVKKVEEDEAGGRFVAFSGEGQSLRKKGRKP” the “soluble on expression in E. coli” value was “soluble”. With “MSLIRSMTGFGRASNDNGRLGFNVEIKSVNHRYFDLNIKLPRNLISLEEKIRKEVGNKIKRGKVDIFITQNVYDSSTTNVNLNKGLAYNYCECLKQIRDDFNVLDDISVSLISKFPDVITVTQNEEDLDEISSLLLKPINEAVDTMLSMREKEGARLKEDIEGKLTNIEELLVNVEKRAPYTVENYRNKLEERIKDLLVDNQVDEAKLAMEVTIFADKSCIDEEIVRLKSHISQFKSTLSENEPVGRKLDFIVQEMNREANTINSKSNDIDIVHCVLDIKNEIEKIREQIQNIEEGHHHHHH” the “soluble on expression in E. coli” value was “soluble”. For “MSYSIDNPGGGDCGFYALAIGLISIIQNEYKLHGKSKTYDRWKQVENIYGVRLQDILNIDLTKLHYSPYTYKSELLFLLQMSLRNIAVIVNKEDLVKRIIEEGRSKDQTKIEGSNAYCKFMELVQLYLYRRGSLERISQFNELALSPEIVQTARDIARMLRPILRNQPFHQAQKIENAFVKEVLLNDVLSGNTINSNSIILKSLEKIKEQGRWATHDDLKEIAELLKINLNVVGQPNGKPIPEYPTVTLKNLSNTHWITQVESLQGPRQYSTPSKRAFGYETLSDRAVPLKEEQTLDRAFRTETQSERTRRYNQHFETLFDTLSPYGFFPHVQSKRNVHVFGKAQTGLESDEALAAQLQEAELRRILY”, the “soluble on expression in E. coli” value was “not soluble”. In the case of “MSLSTPAVQALSHLVRDVTMKSIVLSAFGTMPIVDERPLPVAGPQEILIRMTHASLNPIDRRIAEGFFKDRFEHRFPLTLGIDGAGVVESIGEQVSDFEVGDSVFGRFLHSYVGNGSFSEYVAISADATLLHTPLGVPPALAAALPTAATTALQAVESLGLPPGSVVLIMGATGGVGTFAVQLARAKGYQVLASASTEAAPWLAQLGVEHVFDRTQNVPERLSTGWPAGINGLIDLVNPAPAFAELVSCIAPGGTALSSIWSATADVAAARGVRAVNLEMLPNREDLRTLARQVLSGSLRVVIDKHISLEAVPAVMSQRQAGGARGKTVIDIAEGHHHHHH”, the “soluble on expression in E. coli” value is reported as “soluble”. With “MSLPRARSTIAMCLALTALLGACGRSPQECMERAMYFESNRSSRDGMVAVGSVVMNRVESGQYPKSVCGVVGQRFQFAPRIMSRRMDSRSLPLVRETARSVLKGERHPMIGDAMFFHTAGHRFPYDNMHYVLVTGGNAFYERRPSALVTQPVPPQPMEGLTGWRGW” the “soluble on expression in E. coli” value was “not soluble”. In the case of “ATFIEQQVGGNLTEASLALRLPTLLPYNGVLFLGNSLLVRLVDALTQLPESYPVYTNRGASGIDGLLATAAGIGIGSNKPVVAVIGDTSTLYDLNSFALFKNVTQPTLIFVINNNGGAIFDMLPVDEQVKDQFYRLPHNGDFSQIAAMFDLKYAHPYTWADLNSVVKQAYSRRKATLIEIKTNPSDG”, the “soluble on expression in E. coli” value is reported as “not soluble”. For “MQMLDRLESEILADRVSEESRRWLASCGLTVEQMKNQMDPVYTPARKIHLYHCDHRGLPLALISTEGATAWCAEYDEWGNLLSDENPHHLQQLIRLPGQQYDEESGLYYNRHRYYDPLLGRYITQDPIGLKGGWNFYQYPLNPVINVDPQGLVDINLYPESDLIHSVADEINIPGVFTIGGHGTPTSIESATRSIMTAKDLAYLIKFDGNYKDGMTVWLFSCNTGKGQNSFAS”, the “soluble on expression in E. coli” value was “soluble”. For “MAHHHHHHMSVFAAARQRAAHYANRNPLFAKLNKTHLEYFNCVLREQCPKNKKPGRMLTDPNKIVSFNRDWMNQVEGECPVVLLPTSTQQVAAILRYCQSEKIGIVPQCGNTGLVYGSSALHDEVILSLREMNGDPVVSPQTMSTEAEAGVILQQLQEAAKTHDLLVPITMGSKGSAQIGGAVSTNAGGIHFARYGSMHANVLGLEVVTAQGEVLDMMSTLRKDNAGYDMKHLFIGSEGTLGVVTRVSLKLYPFPRSTQLALFRLTTFESVLELYRLAQEHLSECLSAFEVVDGESLSVTPQEELPFTRTSKSDTFRAGQDFTSAYFCVMVETNGSNAEHDMEKLSRFVEAAECNPRCVSKGDLGESFEPVLSQSLAQTAQLWNLREDTPVRLASAGTIYIFDVSFPLDKFYDIVLHFRKMIYKNGGFDPDEVLVVGYGHFGDGNIHLNVVDRTRKHSDALDAVLFPAVYEFCAAHSGSISAEHGVGVQKKAYLGFSRKPEVIALMRTLKRTMDPNGILNPYKVID”, the “soluble on expression in E. coli” value was “soluble”. For “MGSDKIHHHHHHMKALMFGWEFPPHILGGLGTASFGLTRGMAMQPDMDITFCIPKPWGDEDQSFLKIVGVNQVPIVWKDVDREYVQQRVSKAGMNADQYYKYRDHIYADFSYRHVTDLGCLEFSGRYPDNLLEEINNYSIVAGVIARTEEYDIIHAHDWLTYPAGIHAKNVSGKPLVIHVHATDYDRSRGNVNPDVYAIEKNGMDNADHIITVSNLTRQTVIEKYHQDPAKVTTVHNAVEPLSPEILAIPDKKGVKDKVITFLGRITMQKGPEYFVEAAAKVLAKAPYARFVMAGSGDMMDQMIRLAAARNISDRFHFTGFMKGKQVYEVLKASDVYVMPSVSEPFGISPLEAMQCGVPSIISKQSGCAEILDYAIKVDYWDIEALADAMYSIITYPAMHEFLKVEGKKEVDNIKWEYAGQKVRRIYDNVIGNK”, the “soluble on expression in E. coli” value was “not soluble”. In the case of “MNIGSAIREIRQRRGITIAQICEGTGLSKGFMSQVENNKTSPSISTLETISNFLNVPLPYLLLEQKDRLKIVKKEERKYSVYGKDEQRIEHVAEQGGLRLSLVEIPTGFPKENSPNAHEGEECHLVLRGKLEVQHGEDIAIVEEGDSFSWNACVPHIVRNIGEETALLLISSYAENRQRVY”, the “soluble on expression in E. coli” value is reported as “not soluble”. With “MAFAIASALTSTLTLSTSRVQNPTQRRPHVASTSSTGGRLMRERLVVVRAGKEVSSVCEPLPPDRPLWFPGSSPPEWLDGSLPGDFGFDPLGLGSDPDTLKWFAQAELIHSRWAMLAVTGIIIPECLERLGFIENFSWYDAGSREYFADSTTLFVAQMVLMGWAEGRRWADLIKPGSVDIEPKYPHKVNPKPDVGYPGGLWFDFMMWGRGSPEPVMVLRTKEIKNGRLAMLAFLGFCFQATYTSQDPIENLMAHLADPGHCNVFSAFTSH” the “soluble on expression in E. coli” value was “soluble”. With “MWIEIICGLVIYKLVRRFFYDDEFSDVETSDSTALFSVAHRLEKLYGGKAYVGLRIPDADTASRQDIDVVLVTKGDVVVISVKNLSGIVTVTSDGSWVCEGGKHHTTETFPDPLAEVKKQASVLESYLEQRGVTLLEGNVSCKVVIPNPSFRTIHAFPSEVITYEDWQQLKPVSKSKISGWVKGAFSTGKEMQESSHQKLNFILGTAPTWDRVELKSSKIVLGEFLEFKGKQEDTLALRNIKRSKVDRVSIQKTSMFGL” the “soluble on expression in E. coli” value was “not soluble”. With “MSLQVLDRVELYLVKTPLPAPHAPSWIPGTIRTHVSMCIVRFITDDGVEGWSGFPAAGRERAGLGDLLAGLFLGQEAGDIDKLSERIQIMAAGGNFNWWLEPAFWDIKAKSAGLPLYKLLGGTDDRIRLYASSGELRDPGARREEAEARLAEGFDTMKIRVHDFDEAVDIDHISDIARHMQGRMRISVDCNQAFRLTQNGDAPLWSLDRAKRFVDAAADVGLAWVEEPLFGEWHEEIARLTTYSRVPVAGGELHVMGYRELARMMKMGCYNIFQPDAMWAGGITQCLKVAALCWQEGIRFTPHCWSNGFGFIANAHVFAASGFAGEELFEYPLSPPGWTPEGRDQIFSEPFLHENGWFAMPQTPGLGFEINQETLEKHGQCFFRASRNSTHWMPEALPAEGHHHHHH” the “soluble on expression in E. coli” value was “soluble”. In the case of “VAEQKVKRNVELAGVDVILVHRMLKNEVPVSEYLFMTDVVAQCLDESVRKLATPLTHDFEGIGETSTHYIDLATSDMPPAVPDHSFFGLLWADVKFEWHALPYLLGFKKACAGFRSLGRGATEEPAEMG”, the “soluble on expression in E. coli” value is reported as “not soluble”. For “MQLTESLGIVLFNRNYREDDKLVKIFTEVAGKQMFFVKHISRSKMSSIIQPLTIADFIFKLNDTGLSYVVDYSNVNTYRYINNDIFRLAYASYVLALADAAIADNESDSHLFTFLKKTLDLMEEGLDYEILTNIFEIQILDRFGISLNFHECAICHRTDLPLDFSHRFSAVLCSEHYYKDNRRNHLDPNVIYLLSRFQKITFDDLRTISLNKDIKKKLRQFIDELYHDYVGIKLKSKTFIDNLVKWGDIMK”, the “soluble on expression in E. coli” value was “not soluble”. With “MKRILCITGTRADFGKLKPLLAYIENHPDLELHLIVTGMHMMKTYGRTYKEVTRENYQHTYLFSNQIQGEPMGAVLGNTITFISRLSDEIEPDMVMIHGDRLEALAGAAVGALSSRLVCHIEGGELSGTVDDSIRHSISKLSHIHLVANEQAVTRLVQMGEKRKHIHIIGSPDLDVMASSTLPSLEEVKEYYGLPYENYGISMFHPVTTEAHLMPQYAAQYFKALELSGQNIISIYPNNDTGTESILQELLKYQSDKFIAFPSIRFEYFLVLLKHAKFMVGNSSAGIREAPLYGVPSIDVGTRQSNRHMGKSIIHTDYETKNIFDAIQQACSLGKFEADDTFNGGDTRTSTERFAEVINNPETWNVSAQKRFIDLNL” the “soluble on expression in E. coli” value was “not soluble”. With “MSKIDFHTHYLPTSYVEALKRHVPGDPDGWPTPEWTPQLTLNFMRDNDISYSILSLSSPHVNFGDKAETIRLVEAANDDGKSLAQQYPDQLGYLASLPIPYELDAVKTVQQALDQDGALGVTVPTNSRGLYFGSPVLERVYQELDARQAIVALHPNEPAILPKNVDIDLPVPLLGFFMDTTMTFINMLKYHFFEKYPNIKVIIPHAGAFLGIVDDRIAQYAQKVYQVDVYDVMHHVYFDVAGAVLPRQLPTLMSLAQPEHLLYGSDIPYTPLDGSRQLGHALATTDLLTNEQKQAIFYDNAHRLLTELEHHHHHH” the “soluble on expression in E. coli” value was “soluble”. In the case of “MGSDKIHHHHHHMKKYFPSSELIINEDGSVFHLHVKPEWLADKVILVGDPGRVALVASHFENKECEVESREFKTITGTYKGKRITVVSTGIGCDNIDIVMNELDALANINFETREEKEKFRQLELVRIGTCGGLQPNTPVGTFVCSQKSIGFDGLLNFYAGRNAVCDLPFERAFLNHMGWSGNMCAPAPYVIDASEELIDRIAKEDMVRGVTIAAGGFFGPQGRELRIPLADPKQNDKIEAFEYKGFKITNFEMESSALAGLSRLMGHKAMTVCMVIANRLIKEANTGYKNTIDTLIKTVLDRI”, the “soluble on expression in E. coli” value is reported as “not soluble”.
